This passage reports co-IP efficiency (co-IP divided by input) results from article PMC4771738.

The target in one test is GFP-dynactin 6 (UniProt O00399). As to the kind of experiment: co-IP; HEK 293 cells co-transfected with myc-tagged Rab and GFP fusion; lysis in 50 mM Tris pH 7.4, 150 mM NaCl, 1% Triton X-100; GFP fusions precipitated on GBP agarose beads, room temperature 1.5 h; blot for myc and GFP; co-IP efficiency = co-IP / input.
A further test addresses GFP-syntaxin 8 (UniProt Q9UNK0). The test is described as above.
UniProt Q9UNK0, sequence (Q9UNK0 whole entry): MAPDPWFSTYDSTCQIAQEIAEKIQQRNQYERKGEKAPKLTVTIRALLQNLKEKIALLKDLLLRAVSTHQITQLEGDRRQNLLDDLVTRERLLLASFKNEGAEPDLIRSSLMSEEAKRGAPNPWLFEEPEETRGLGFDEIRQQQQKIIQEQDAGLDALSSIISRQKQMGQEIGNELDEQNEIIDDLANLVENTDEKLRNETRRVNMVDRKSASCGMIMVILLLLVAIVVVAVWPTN

UniProt O00399, sequence (O00399 whole entry, the tested form may be a part): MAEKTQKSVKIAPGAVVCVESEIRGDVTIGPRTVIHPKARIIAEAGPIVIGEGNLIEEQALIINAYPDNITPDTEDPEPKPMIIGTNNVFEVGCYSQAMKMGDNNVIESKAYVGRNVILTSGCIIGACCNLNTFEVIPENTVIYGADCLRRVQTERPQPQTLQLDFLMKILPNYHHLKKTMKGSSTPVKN

Consider “myc-tagged GDP-locked Rab41/6d (from UniProt Q5JT25 1-222) (natural protein)”, for which the values for the co-IP efficiency (co-IP divided by input) with GFP-dynactin 6 and in the test with GFP-syntaxin 8 were 2% and 1.9%, respectively.

For the substance “myc-tagged GTP-locked Rab41/6d (from UniProt Q5JT25 1-222) (natural protein)”, the co-IP efficiency (co-IP divided by input) with GFP-dynactin 6 came out at 2.7%; with GFP-syntaxin 8, 3.3%.
